What was measured:
[1] = CD spectrophotometry of FITC-labelled peptides; format: physicochemical
[2] = tested on: HEK-293 cells expressing GFP 11+GFP 1-10 fragments; assay: Effect of cargo peptides on reconstitution of split GFP activity, transfected constructs (FIG. 17); format: cell-based, human; conditions: peptide fused to Sumo-GFP 11, expressed from transiently transfected constructs; independent of uptake
Text: FIG. 17 is a graphical representation showing the effect of cargo proteins on reconstitution of split GFP activity in isolated HEK-293 cells expressing GFP 11+GFP 1-10 fragments. HEK-293 cells transfected with GFP 1-10 vectors pcDNA4/TO vector [TO hGFP1-10(a)] or pcDNA4/HM vector [HM hGFP1-10(a)] are shown on the abscissa. Relative fluorescence for each GFP 11 construct added to the cells, normalized for activity in the presence of the MyD88_S11 and mGFP1-10 constructs, is indicated on the y-axis. The GFP 11 constructs lacking cargo peptides were: MyD88-GFP 11 fusion (MyD88_S11); Mal-GFP 11 fusion (Mal_S11), β-actin-GFP 11 fusion β-actin_S11), and Sumo-GFP 11 fusion (Sumo_S11). […]
The inventors have also considered the effect of cargo protein on reconstitution of split GFP activity in isolated HEK-293 cells expressing GFP 11+GFP 1-10 fragments. HEK-293 cells were transfected with GFP 1-10 vectors pcDNA4/TO vector [TO hGFP1-10(a)] or pcDNA4/HM vector [HM hGFP1-10(a)], and recombinant GFP 11-encoding constructs were added to the cells, and fluorescence activity was determined as a normalized value relative to fluorescence obtained for transfections employing MyD88-GFP11 and mGFP1-10 constructs. […]

[3] = biological target: hGFP1-10(a) (humanized variant of commercially-available mGFP1-10, 'A' variant, expressed from pcDNA4/TO or pcDNA4/HM); assay: cell-based or functional assay
[4] = tested on: endosome; conditions: Sugita et al. 2008; cited from earlier work

Row | Substance | CD spectral analysis, conformation ([1]; NaF Buffer pH 7.2) | CD spectral analysis, conformation ([1]; SDS Micelles pH 7.2) | CD spectral analysis, conformation ([1]; SDS Micelles pH 4.5) | further results
1 | C20_ABH_0304_1746: identified CPP, 38 aa; Transposase fragment [Bordetella pertussis] (PLKPKKPKTQEKKKKQPPKPKKPKTQEKKKKQPPKPKR) | Strong Beta-turn | Strong Beta-turn | – | –
2 | PYC35: cargo protein, which is not a CPP (RSDYKDDDDKAYQSIRSGGIESSSKRER) | – | – | – | Decrease of Sumo_S11 fluorescence (reconstitution of split GFP activity) [2]: no-effect
3 | T08_HBM_0104_0084: identified CPP, 33 aa (RKQKSLQTKLAENPPVPRKKRQSRPRWKQWLQK) | Partially helical | Helical | Helical | –
4 | T09_HBM_0103_0167: identified CPP, 32 aa (PSSTPATNVARPRLNPIRGHKFALAVPNSRTR) | Coil with Beta-turn | Coil with Beta-turn | Random coil | CD spectral analysis, conformation ([1]; NaF Buffer pH 4.5): Random coil
5 | TAT-Sumo-GFP 11 fusion | – | – | – | decrease of GFP fluorescence (split GFP reconstitution) relative to Sumo S11 in transiently transfected HEK-293 cells [3]: > 50%
6 | transferrin: named in cited endosome escape study | – | – | – | Efficiency of endosome escape [4]: low
